Source: paper PMC3958868, “The Proteasome Activator PA28γ, a Negative Regulator of p53, Is Transcriptionally Up-Regulated by p53”

target: p53 (UniProt P04637 1-393); assay: biotinylated DNA pull-down, western blot; 10 mM Tris-HCl pH 8.0, 40 mM KCl, 1 mM DTT, 6% glycerol, 0.05% NP-40; overnight at 4 °C; 20 µg p53, 1 µg biotinylated oligo; beads washed with Tris-EDTA (100 mM NaCl), binding buffer, PBS; details: protein: recombinant; chain copies: 4; label: biotin
Sequence (P04637 whole entry): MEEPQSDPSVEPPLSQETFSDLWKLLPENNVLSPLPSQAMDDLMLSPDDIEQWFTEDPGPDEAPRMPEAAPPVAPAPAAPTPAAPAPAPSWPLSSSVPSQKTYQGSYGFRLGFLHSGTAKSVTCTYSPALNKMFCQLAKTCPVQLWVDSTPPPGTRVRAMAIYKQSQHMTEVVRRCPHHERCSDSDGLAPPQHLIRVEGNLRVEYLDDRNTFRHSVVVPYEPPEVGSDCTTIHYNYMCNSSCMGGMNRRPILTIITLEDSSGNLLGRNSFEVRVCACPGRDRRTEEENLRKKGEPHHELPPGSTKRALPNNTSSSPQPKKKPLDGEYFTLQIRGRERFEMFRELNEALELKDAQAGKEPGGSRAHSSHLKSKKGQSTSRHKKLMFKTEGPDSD

| Binder | binding result |
| --- | --- |
| RE1 wild-type (dsDNA) DNA 1: TTACATGTTGAAATACTTGTAT DNA 2: ATACAAGTATTTCAACATGTAA | binds |
| RE2 wild-type (dsDNA) DNA 1: GTGCATGAAGAGGTATAGTCTCATGCTT DNA 2: AAGCATGAGACTATACCTCTTCATGCAC | binds |
| RE1 mutant (dsDNA) DNA 1: TTATCGCTTGAAATACTTGTAT DNA 2: ATACAAGTATTTCAAGCGATAA | no binding |
| RE2 mutant (dsDNA) DNA 1: GTGTCGCAAGAGGTATAGTCTCATGCTT DNA 2: AAGCATGAGACTATACCTCTTGCGACAC | no binding |
